Reference: patent US20170267750A1, “Method of Treating Ovarian and Renal Cancer Using Antibodies Against T Cell Immunoglobulin Domain and Mucin Domain 1 (TIM-1) Antigen” (Celldex Therapeutics, Inc., priority 2005, published 2017)
Marks after values point to notes of the source that are not given here. Blank lines part the entries; values can stand above or below the molecule they belong to.

Assays:
TIM-1 antigen [1] = biological target: T1, TIM-1 antigen (Homo sapiens, UniProt Q96D42, DEL158-162/L179P); assay: Epitope binning (antigen binding competition, Luminex); details: for Bin: Table 9
T1 construct: V5; His; made in house; host or cells: baculovirus expression system (pMelV5His vector / pBlueBac)
T1 sequence (Q96D42 with tags, fused parts or gaps DEL158-162/L179P): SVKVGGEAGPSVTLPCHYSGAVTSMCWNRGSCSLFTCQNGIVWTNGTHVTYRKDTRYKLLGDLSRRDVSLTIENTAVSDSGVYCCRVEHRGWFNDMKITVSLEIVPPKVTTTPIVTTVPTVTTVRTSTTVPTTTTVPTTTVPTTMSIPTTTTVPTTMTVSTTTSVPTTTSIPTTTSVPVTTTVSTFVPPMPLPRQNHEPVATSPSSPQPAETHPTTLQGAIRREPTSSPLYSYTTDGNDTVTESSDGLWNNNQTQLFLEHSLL
Procedure: Certain antibodies, described herein were “binned” in accordance with the protocol described in U.S. Patent Application Publication No. 20030157730, published on Aug. 21, 2003, entitled “Antibody Categorization Based on Binding Characteristics.”
MxhIgG conjugated beads were prepared for coupling to primary antibody. The volume of supernatant needed was calculated using the following formula: (n+10)×50 μL (where n=total number of samples on plate). Where the concentration was known, 0.5 μg/mL was used. Bead stock was gently vortexed, then diluted in supernatant to a concentration of 2500 of each bead per well or 0.5×10^5/mL and incubated on a shaker in the dark at room temperature overnight, or 2 hours if at a known concentration of 0.5 μg/mL. Following aspiration, 50 μL of each bead was added to each well of a filter plate, then washed once by adding 100 μL/well wash buffer and aspirating. Antigen and controls were added to the filter plate 50 μL/well then covered and allowed to incubate in the dark for 1 hour on shaker. Following a wash step, a secondary unknown antibody was added at 50 μL/well using the same dilution (or concentration if known) as used for the primary antibody. The plates were then incubated in the dark for 2 hours at room temperature on shaker followed by a wash step. Next, 50 μL/well biotinylated mxhIgG diluted 1:500 was added and allowed to incubate in the dark for 1 hour on shaker at room temperature. Following a wash step, 50 μL/well Streptavidin-PE was added at 1:1000 and allowed to incubate in the dark for 15 minutes on shaker at room temperature. Following a wash step, each well was resuspended in 80 μL blocking buffer and read using a Luminex system.

TIM-1 antigen [2] = biological target: T1, TIM-1 antigen; assay: BiaCore affinity determination of anti-TIM-1 mAb; assay type: binding; details: 25° C.; mAb captured on chip; TIM-1 antigen injected at 292 nM
Procedure: BiaCore® analysis was used to determine binding affinity of anti-TIM-1 antibody to TIM-1 antigen. The analysis was performed at 25° C. using a BiaCore® 2000 biosensor equipped with a research-grade CMS sensor chip. A high-density goat […] antibody surface over a CMS BiaCore® chip was prepared using routine amine coupling. Antibody supernatants were diluted to ˜5 μg/mL in HBS-P running buffer containing 100 μg/mL BSA and 10 mg/mL carboxymethyldextran. The antibodies were then captured individually on a separate surface using a 2 minute contact time, and a 5 minute wash for stabilization of antibody baseline.
TIM-1 antigen was injected at 292 nM over each surface for 75 seconds, followed by a 3-minute dissociation. Double-referenced binding data were obtained by subtracting the signal from a control flow cell and subtracting the baseline drift of a buffer inject just prior to the TIM-1 injection. TIM-1 binding data for each mAb were normalized for the amount of mAb captured on each surface. The normalized, drift-corrected responses were also measured.

[3] = biological target: T2, TIM-1 protein on human CD4+ Th2 cells (Homo sapiens, UniProt Q96D42); assay: FACS analysis of expression of TIM-1 protein on human CD4+ Th2 cells; assay type: binding
T2 construct: a major fraction of polarized human Th2 and Th1 cells do express TIM-1; endogenous in cells; host or cells: primary human CD4+ T cells from blood
T2 sequence (Q96D42 21-364): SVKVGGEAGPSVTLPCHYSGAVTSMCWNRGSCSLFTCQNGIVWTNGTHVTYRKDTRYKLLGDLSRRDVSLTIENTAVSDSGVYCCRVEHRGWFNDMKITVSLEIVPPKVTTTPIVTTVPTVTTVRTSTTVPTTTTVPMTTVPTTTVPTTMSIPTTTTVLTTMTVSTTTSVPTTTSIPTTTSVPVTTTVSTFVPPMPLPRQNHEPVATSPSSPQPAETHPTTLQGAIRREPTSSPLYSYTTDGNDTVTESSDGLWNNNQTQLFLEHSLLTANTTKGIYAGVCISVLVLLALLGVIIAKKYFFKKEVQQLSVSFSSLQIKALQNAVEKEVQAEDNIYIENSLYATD
Procedure: Mononuclear cells were isolated from human blood diluted 1:1 in PBS, by spinning over Ficoll for 20 minutes. The mononuclear cells were washed twice at 1000 rpm with PBS-Mg and Ca and re-suspended in Miltenyi buffer (Miltenyi Biotec Inc., Auburn, Calif.); PBS, 0.5% BSA, 5 mM EDTA at approximately 10^8 cells/mL. 20 μL of CD4 Miltenyi beads were added per 107 cells and incubated for 15 minutes on ice. Cells were washed with a 10-fold excess volume of Miltenyi buffer. A positive selection column (type VS+) (Miltenyi Biotec Inc., Auburn, Calif.) was washed with 3 mL of Miltenyi buffer. The pelleted cells were re-suspended at 10^8 cells per mL of Miltenyi buffer and applied to the washed VS column. The column was then washed three times with 3 mL of Miltenyi buffer. Following this, the VS column was removed from the magnetic field and CD4+ cells were eluted from the column with 5 mL of Miltenyi buffer. […]
FACS analysis was performed to determine the expression of TIM-1 protein as detected with five anti-TIM-1 monoclonal antibodies (2.59.2, 1.29, 2.70.2, 2.56.2, 2.45.1) on human and mouse resting CD4+ T cells, as well as human activated and human polarized CD4+ T cells.
Data is reported as the geometric mean of the fluorescence intensity.

Th1 cells = assay: Cytokine assay (ELISA of culture supernatants), CD4+ Th1 cells; assay type: cell-based, human; details: 5 μg/mL mAb
Procedure: (§1) IL-4, IL-5, IL-10, IL-13, and IFNγ production levels by activated Th1 and Th2 cell were measured in culture supernatants treated with anti-TIM-1 antibodies using standard ELISA protocols. Cytokine production by Th1 or Th2 cells treated with anti-TIM-1 antibodies was compared to Th1 or Th2 cells treated with the control PK16.3 antibody. In addition, the following samples were run in parallel as internal controls: i) anti-CD3 treated Th1 or Th2 cells, where no cytokine production is expected because of the absence of co-stimulation, ii) anti-CD3/anti-CD28 stimulated Th1 or Th2 cells, expected to show detectable cytokine production, and iii) untreated Th1 or Th2 cells. CD4+ T cells were isolated as described in the Example above. Isolated CD4+ lymphocytes were then spun down and re-suspended in DMEM 5% FCS plus additives (non-essential amino acids, sodium pyruvate, mercaptoethanol, glutamine, penicillin, and streptomycin) at 10^6 cells/mL. Falcon 6-well non-tissue culture treated plates were pre-coated overnight with anti-CD3 (2 μg/mL) and anti-CD28 (10 μg/mL) (600 μL total in Dulbecco's PBS) overnight at 4° C. The plates were washed with PBS and CD4+ lymphocytes were suspended at 500,000 cells/mL in Th2 medium: DMEM+10% FCS plus supplements and IL-2 5 ng/mL, IL-4 5 ng/mL, anti-IFN gamma 5 μg/mL and cells were stimulated 4-6 days at 37° C. and 5% CO2 in the presence of 5 μg/mL of mAb recognizing the TIM-1 protein or isotype matched negative control mAb PK16.3.
(§2) In another set of experiments, CD4+ lymphocytes were suspended at 500,000 cells/mL in Th1 medium: DMEM+10% FCS plus supplements and IL-2 5 ng/mL, IL12 5 ng/mL, anti-IL-4 5 μg/mL and stimulated 4-6 days 37° C. temp and 5% CO2 in the presence of 5 μg/mL TIM-1 or isotype matched control mAb PK16.3. Cells were washed two times in DMEM and resuspended in DMEM, 10% FCS plus supplements and 2 ng/mL IL-2 (500,000 cells/mL) in the presence of 5 μg/mL TIM-1 mAb or control PK16.3 mAb and cultured (rested) for 4-6 days at 37° C. and 5% CO2. The process of activation and resting was repeated at least once more as described above with the addition of anti-CD95L (anti-FAS ligand) to prevent FAS-mediated apoptosis of cells. Falcon 96-well non-tissue culture treated plates pre-coated overnight with anti-CD3 mAb at 500 ng/mL and costimulatory molecule B7H2 (B7 homolog 2) 5 μg/mL were washed and 100 μL of TIM-1 mAb treated Th1 or Th2 (200,000 cells) added per well. After 3 days of culture, the supernatants were removed and IL-4, IL-5, IL-10, IL-13, and IFNγ […]levels were determined by ELISA (Pharmingen, San Diego, Calif. or R&D Systems, Minneapolis, Minn.).

Th2 cells = assay: Cytokine assay (ELISA of culture supernatants), CD4+ Th2 cells; assay type: cell-based, human; details: for IL-5 production, percent of cytokine production detected using the control PK16.3 mAb / IL-10 production, percent of cytokine production detected using the control PK16.3 mAb / IL-13 production, percent of cytokine production detected using the control PK16.3 mAb / IL-4 production, percent of cytokine production detected using the control PK16.3 mAb: Th2
Procedure: as §1, §2
Each experiment used purified CD4+ cells isolated from whole blood samples from two independent donors. Cytokine production is reported as the percent of cytokine production detected using the control PK16.3 mAb. The anti-TIM-1 mAb used in each experiment is specified along the bottom row.

BT549 cells = assay: FACS analysis on antigen negative BT549 breast cancer cells (control); assay type: binding, human; details: normalized to isotype control (pK16)
[4] = TH1, Donor 12 + 17, control PK16.3 mAb
[5] = 5 μg/mL mAb, compared to control PK16.3 mAb
[6] = TH2, Donor 12 + 17, control PK16.3 mAb, 5 μg/mL mAb

Bin (TIM-1 antigen [1]): 7 | Kd (TIM-1 antigen [2]): 3.35 nM
B1: mAb 2.54: fully human IgG4 kappa anti-TIM-1 monoclonal antibody; heavy chain SEQ ID NO: 26, light chain SEQ ID NO: 28 (antibody, listed as Homo Sapiens, V domains shown)
VH: QVQLEQSGGGVVQPGRSLRLSCAASGFTFTNYGLHWVRQAPGKGLDWVAVIWYDGSHKFYADSVKGRFTISRDNSKNTLFLQMNSLRAEDTAVYYCTRDLDYWGQGTLVTVSSA
VL: ETQLTQSPGTLSLSPGERVTLSCRASQSVSNNYLAWYQQKPGQAPRLLIYGASSRATGIPDRFSGSGSGTDFTLTISRLEPEDCAECYCQQYGSSLPLTFGGGTKVEIKR

Bin (TIM-1 antigen [1]): 5 | Kd (TIM-1 antigen [2]): 1.1 nM
B2: mAb 2.56: fully human IgG4 kappa anti-TIM-1 monoclonal antibody; heavy chain SEQ ID NO: 30, light chain SEQ ID NO: 32 (antibody, listed as Homo Sapiens)
heavy: QVQLVESGGGVVQPGRSLRLSCAASGFTFSSYGMHWVRQAPGKGLEWVAVIWYDGSHKYYADSVKGRFTISRDNSKNTLYLQMNSLRAEDTAVYYSARDYYDTSRHHWGFDCWGQGTLVTVSSA
light: EIVMTQTPLSLPVTPGEPASISCRSSQSLLDSEDGNTYLDWYLQKPGQSPQLLIYTLSHRASGVPDRFSGSGSGTDFTLKISRVEAEDVGVYCCMQRVEFPITFGQGTRLEIKR

Geometric mean of fluorescence intensity ([3]; Polarized Human CD4+ Th2 Cells): 22.3 | Geometric mean of fluorescence intensity ([3]; Resting Human CD4+ T cells): 4.7 | BIN (TIM-1 antigen [1]; Table 8): 1 | Bin (TIM-1 antigen [1]): 1
B3: mAb 1.29: fully human IgG2 kappa anti-TIM-1 monoclonal antibody; heavy chain SEQ ID NO: 2, light chain SEQ ID NO: 4 (antibody, listed as Homo Sapiens, V domains shown)
VH: QVQLQESGPGLVKPSETLSLTCTVSGGSVSSGGYYWSWIRQPPGKGLEWIGFIYYTGSTNYNPSLKSRVSISVDTSKNQFSLKLSSVTAADAAVYYCARDYDWSFHFDYWGQGTLVTVSSA
VL: DIQMTQSPSSLSASIGDRVTITCRASQGIRNDLGWYQQKPGKAPKRLIYAASSLQSGVPSRFSGSGSGTEFTLTISSLQPEDFATYYCLQHNSYPLTFGGGTKVEIKR
IL-10 release from Th1 cells (Th1 cells; compared to control PK16.3 mAb): significantly inhibited | IL-13 release from Th1 cells (Th1 cells; compared to control PK16.3 mAb): significantly inhibited | IL-4 Percentage of Control Antibody (Th1 cells; [4]): 81.05 Percentage of Control Antibody | IL-5 Percentage of Control Antibody (Th1 cells; [4]): 94.63 Percentage of Control Antibody | IL-10 Percentage of Control Antibody (Th1 cells; [4]): 60.77 ** Percentage of Control Antibody | IL-13 Percentage of Control Antibody (Th1 cells; [4]): 73.95 *** Percentage of Control Antibody | INF γ Percentage of Control Antibody (Th1 cells; [4]): 93.51 Percentage of Control Antibody | IL-5 release from Th2 cells (Th2 cells; [5]): significantly inhibited | IL-10 release from Th2 cells (Th2 cells; [5]): significantly inhibited | IL-13 release from Th2 cells (Th2 cells; [5]): significantly inhibited | IL-4 Percentage of Control Antibody (Th2 cells; [6]): 112.54 Percentage of Control Antibody | IL-5 Percentage of Control Antibody (Th2 cells; [6]): 80.26 Percentage of Control Antibody | IL-10 Percentage of Control Antibody (Th2 cells; [6]): 44.45 * Percentage of Control Antibody | IL-13 Percentage of Control Antibody (Th2 cells; [6]): 48.91 ** Percentage of Control Antibody | INF γ Percentage of Control Antibody (Th2 cells; [6]): 112.54 Percentage of Control Antibody | IL-5 production, percent of cytokine production detected using the control PK16.3 mAb (Th2 cells; Donor ID 12): 2% | IL-10 production, percent of cytokine production detected using the control PK16.3 mAb (Th2 cells; Donor ID 12): 109% | IL-13 production, percent of cytokine production detected using the control PK16.3 mAb (Th2 cells; Donor ID 12): 91% | IL-4 production, percent of cytokine production detected using the control PK16.3 mAb (Th2 cells; Donor ID 12 + 14): 626% | IL-5 production, percent of cytokine production detected using the control PK16.3 mAb (Th2 cells; Donor ID 12 + 14): 5% | IL-10 production, percent of cytokine production detected using the control PK16.3 mAb (Th2 cells; Donor ID 12 + 14): 83% | IL-4 production, percent of cytokine production detected using the control PK16.3 mAb (Th2 cells; Donor ID 13 + 14): 130% | IL-5 production, percent of cytokine production detected using the control PK16.3 mAb (Th2 cells; Donor ID 13 + 14): 122% | IL-10 production, percent of cytokine production detected using the control PK16.3 mAb (Th2 cells; Donor ID 13 + 14): 19% | IL-13 production, percent of cytokine production detected using the control PK16.3 mAb (Th2 cells; Donor ID 13 + 14): 17% | IL-5 production, percent of cytokine production detected using the control PK16.3 mAb (Th2 cells; Donor ID 14): 67% | IL-10 production, percent of cytokine production detected using the control PK16.3 mAb (Th2 cells; Donor ID 14): 45% | IL-13 production, percent of cytokine production detected using the control PK16.3 mAb (Th2 cells; Donor ID 14): 100% | block of Th2 cytokines across donor groups (Th2 cells; multiple experiments with different donors): reproducibly block one or more of the Th2 cytokines | Geo Mean Ratio (relative to negative control) BT549 (BT549 cells): 1.2
